Laboratory results: patent US20030109481, “Tumour-cell specific gene expression and its use in cancer therapy” (published 2003)

Tests used:
Conditions in all cases: tags: baculovirus-expressed
E2F-1/DP1 heterodimer [1] = molecular target: T1, E2F-1/DP1 heterodimer (UniProt Q01094;Q14186 Q01094:1-437,Q14186:1-410); assay: EMSA
E2F-1/DP1 heterodimer [2] = molecular target: T1, E2F-1/DP1 heterodimer; assay: EMSA; stated as similar results to first mutation
E2F-1/DP1 heterodimer [3] = molecular target: T1, E2F-1/DP1 heterodimer; assay: EMSA; mutation abolished E2F-1 binding; promoter activity reduced about 2-fold and E2F-1 activation suppressed
E2F-1/DP1 heterodimer [4] = molecular target: T1, E2F-1/DP1 heterodimer; assay: EMSA; mutation abolishes binding; promoter activity reduced at least 2-fold but not activation by E2F-1

T1 sequence (Q01094 whole entry, chain 1 of 2): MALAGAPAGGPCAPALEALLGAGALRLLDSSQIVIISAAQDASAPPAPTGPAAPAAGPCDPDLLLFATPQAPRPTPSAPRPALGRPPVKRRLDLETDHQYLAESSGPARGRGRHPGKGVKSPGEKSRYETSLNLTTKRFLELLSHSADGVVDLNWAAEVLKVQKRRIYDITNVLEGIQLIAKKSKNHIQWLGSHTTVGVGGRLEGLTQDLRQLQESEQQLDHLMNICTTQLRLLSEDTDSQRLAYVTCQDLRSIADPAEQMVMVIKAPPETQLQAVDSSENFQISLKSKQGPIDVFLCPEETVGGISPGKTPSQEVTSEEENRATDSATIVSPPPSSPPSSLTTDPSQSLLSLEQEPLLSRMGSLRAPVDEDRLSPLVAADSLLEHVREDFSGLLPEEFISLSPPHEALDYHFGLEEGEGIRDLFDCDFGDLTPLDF
T1 sequence (Q14186 whole entry, chain 2 of 2): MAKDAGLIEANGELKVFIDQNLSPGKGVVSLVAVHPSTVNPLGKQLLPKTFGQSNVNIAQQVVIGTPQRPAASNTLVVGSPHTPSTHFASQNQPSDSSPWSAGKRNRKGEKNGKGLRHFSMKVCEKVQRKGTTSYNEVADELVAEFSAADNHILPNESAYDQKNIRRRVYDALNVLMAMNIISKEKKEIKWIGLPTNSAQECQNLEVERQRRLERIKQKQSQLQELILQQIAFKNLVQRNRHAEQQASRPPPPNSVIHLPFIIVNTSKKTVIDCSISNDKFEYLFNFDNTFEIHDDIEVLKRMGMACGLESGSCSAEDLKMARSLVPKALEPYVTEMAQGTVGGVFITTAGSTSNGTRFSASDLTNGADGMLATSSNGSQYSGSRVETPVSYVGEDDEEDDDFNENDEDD

B1: Skp2 promoter region 1 (dsDNA)
DNA 1: GCTCCGGGAAAA
DNA 2: TTTTCCCGGAGC
E2F-1/DP1 heterodimer [1]
  binding result: no binding

B2: Skp2 promoter region 4 (dsDNA)
DNA 1: AGTTCGCGGGTCC
DNA 2: GGACCCGCGAACT
E2F-1/DP1 heterodimer [1]
  binding result: binds

B3: region 2 mutant 2 (dsDNA)
DNA 1: AATCCATCCCGGCACCTCAGG
DNA 2: CCTGAGGTGCCGGGATGGATT
E2F-1/DP1 heterodimer [2]
  binding result: no binding

B4: region 3 mutant (dsDNA)
DNA 1: AGAGCATGCAGAACTCCGCACGAGCGGTGG
DNA 2: CCACCGCTCGTGCGGAGTTCTGCATGCTCT
E2F-1/DP1 heterodimer [3]
  binding result: no binding

B5: region 2 mutant 4 (dsDNA)
DNA 1: AATCCCGCCCGGCGCATCAGG
DNA 2: CCTGATGCGCCGGGCGGGATT
E2F-1/DP1 heterodimer [2]
  binding result: no binding

B6: region 2 mutant 3 (dsDNA)
DNA 1: AATCCCGCCCGGATCCGCAGG
DNA 2: CCTGCGGATCCGGGCGGGATT
E2F-1/DP1 heterodimer [2]
  binding result: no binding

B7: Skp2 promoter region 2 (dsDNA)
DNA 1: AATCCCGCCCGGCGCCGCAGG
DNA 2: CCTGCGGCGCCGGGCGGGATT
E2F-1/DP1 heterodimer [1]
  binding result: binds

B8: region 2 mutant 1 (dsDNA)
DNA 1: AATCCCACCCGGCACCTCAGG
DNA 2: CCTGAGGTGCCGGGTGGGATT
E2F-1/DP1 heterodimer [4]
  binding result: no binding

B9: Skp2 promoter region 3 (dsDNA)
DNA 1: AGAGCGGGATGCAGAACTCCGCGCGCGCGGTGG
DNA 2: CCACCGCGCGCGCGGAGTTCTGCATCCCGCTCT
E2F-1/DP1 heterodimer [1]
  binding result: binds
